Test results as given in publication PMC3806636.

Biological target: Atg17 (Lachancea thermotolerans), crystallised construct (Lachancea thermotolerans)
Assay: SEC-MALS

Atg17 (Lachancea thermotolerans), crystallised construct (natural protein)
stoichiometry N: 2
